Laboratory results from paper PMC10329691, “The structural pathology for hypophosphatasia caused by malfunctional tissue non-specific alkaline phosphatase” (Nature Communications, 2023).
Residue numbers refer to the chain shown, from its start. Names and notes keep the numbering of the source.

Assays:
[1] = target: the molecule itself; experiment: SEC; Superdex 200 Increase 10/300 GL, 20 mM HEPES pH 7.5, 150 mM NaCl; purified TNAP alone
[2] = target: the molecule itself; experiment: SEC-MALS; static light scattering, WTC-030S5 column, 150 mM NaCl, 20 mM HEPES pH 7.5, 0.5 mL/min
[3] = target: the molecule itself; experiment: crystal structure; crystals of hTNAP 18-500 grown at acidic pH (PEG3350, sodium acetate pH 5.0; about 2.9 Å) and at basic pH (PEG4000, Tris pH 8.0, MgCl2; about 3.2 Å)
[4] = target: T1, human tissue non-specific alkaline phosphatase, amino acids 18-500 (hTNAP^18–500) (human, UniProt P05186, N-glycosylation (asparagine residues, seen in the crystal structure)); experiment: cryo-EM structure; hTNAP 18-500-scFv complex, 300 kV Titan Krios, C2 symmetry, 2.96 Å; settings: both partners purified
T1 construct: human tissue non-specific alkaline phosphatase (ALPL gene), amino acids 18-500, the mature form with the GPI-anchor amidated residue Ser 501 removed; HA signal peptide at the N-terminus for secretion; TEV protease site before the Flag and His tags, no cleavage described; Dimer dominates in solution, with higher oligomers; octamer in the crystals; The same range was also made in Expi293F from …

B1: TNAP^T167M (active site mutant of hTNAP 18-500) (enzyme, human, UniProt P05186 18-500, looked up)
chain: LVPEKEKDPKYWRDQAQETLKYALELQKLNTNVAKNVIMFLGDGMGVSTVTAARILKGQLHHNPGEETRLEMDKFPFVALSKTYNTNAQVPDSAGTATAYLCGVKANEGTVGVSAATERSRCNTTQGNEVTSILRWAKDAGKSVGIVTTMRVNHATPSAAYAHSADRDWYSDNEMPPEALSQGCKDIAYQLMHNIRDIDVIMGGGRKYMYPKNKTDVEYESDEKARGTRLDGLDLVDTWKSFKPRYKHSHFIWNRTELLTLDPHNVDYLLGLFEPGDMQYELNRNNVTDPSLSEMVVVAIQILRKNPKGFFLLVEGGRIDHGHHEGKAKQALHEAVEMDRAIGQAGSLTSSEDTLTVVTADHSHVFTFGGYTPRGNSIFGLAPMLSDTDKKPFTAILYGNGPGYKVVGGERENVSMVDYAHNNYQAQSAVPLRHETHGGEDVAVFSKGPMAHLLHGVHEQNYVPHVMAYAACIGANLGHCAPA
notes: human tissue non-specific alkaline phosphatase, amino acids 18-500, with the hypophosphatasia mutation T167M; HA signal peptide at the N-terminus; PreScission site before the tags; also called active site mutant TNAP^T167M; source: Expi293F, transfected, purified from the supernatant (Nickel-chelating resin, SEC)
[1]
  stoichiometry N: 2

B2: human tissue non-specific alkaline phosphatase, amino acids 18-500 (hTNAP^18–500) (enzyme, UniProt P05186 18-500, looked up)
chain: B1 chain with M150T
modifications: N-glycosylation (asparagine residues, seen in the crystal structure)
notes: human tissue non-specific alkaline phosphatase (ALPL gene), amino acids 18-500, the mature form with the GPI-anchor amidated residue Ser 501 removed; HA signal peptide at the N-terminus for secretion; TEV protease site before the Flag and His tags, no cleavage described; Dimer dominates in solution, with higher oligomers; octamer in the crystals; The same range was also made in Expi293F from …
[2]
  stoichiometry N: 2
[3]
  stoichiometry N: 8

B3: TNAP^R450C (dimeric interface mutant of hTNAP 18-500) (enzyme, human, UniProt P05186 18-500, looked up)
chain: B1 chain with M150T, R433C
notes: human tissue non-specific alkaline phosphatase, amino acids 18-500, with the hypophosphatasia mutation R450C; HA signal peptide at the N-terminus; PreScission site before the tags; also called dimeric interface mutant TNAP^R450C; source: Expi293F, transfected, purified from the supernatant (Nickel-chelating resin, SEC)
[1]
  stoichiometry N: 2

B4: scFv of the TNAP agonist antibody JTALP001 (scFv, V domains shown)
VH: QVQLVQSGAEVKKPGASVKVSCKASGYTFTSYGISWVRQAPGQGLEWMGWISAYNGNTNYAQKLQGRVTMTTDTSTSTAYMELRSLRSDDTAVYYCARDKGWNSEGSLEYWGQGTLVTVSS
VL: DIVMTQSPSSVSASVGDRVTITCRASQGISNWLGWYQQKPGKAPKLLIYGASSLQSGVPSRFSGSGSGTDFTLTISSLQPEDFATYFCQQAYSLPLTFGGGTKLEIK
notes: scFv selected from a human scFv phage library against hTNAP 18-500; The Fc fragment of JTALP001 was replaced by a His-tag; also called scFv fragment; scFv antibody; source: Expi293F, purified (Nickel-chelating resin)
[4]
  stoichiometry N: 1 scFv per TNAP protomer
